In US20150247163:
Positions count from the first letter of the chain named. Names may count otherwise.

What was measured:
[1] = biological target: T1, PBS1^RCS2-HA (PBS1 in which the AvrPphB cleavage site GDKSHVS is replaced with the RIN4 cleavage site 2 VPKFGDW, fused to a C-terminal 3xHA epitope)
T1 chain: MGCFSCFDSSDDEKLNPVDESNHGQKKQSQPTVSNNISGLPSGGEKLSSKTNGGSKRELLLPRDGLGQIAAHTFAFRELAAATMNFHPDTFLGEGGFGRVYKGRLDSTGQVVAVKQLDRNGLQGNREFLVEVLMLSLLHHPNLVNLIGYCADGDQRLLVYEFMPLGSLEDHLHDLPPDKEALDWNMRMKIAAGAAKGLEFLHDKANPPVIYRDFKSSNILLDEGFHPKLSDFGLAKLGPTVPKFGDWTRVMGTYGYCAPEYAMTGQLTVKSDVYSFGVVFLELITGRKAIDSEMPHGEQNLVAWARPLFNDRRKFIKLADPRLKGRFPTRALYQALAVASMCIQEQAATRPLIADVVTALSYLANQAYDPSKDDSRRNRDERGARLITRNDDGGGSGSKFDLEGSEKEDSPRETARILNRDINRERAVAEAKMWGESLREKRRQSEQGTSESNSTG

[2] = biological target: T2, wild-type PBS1 (AvrPphB susceptible 1), Q9FE20
T2 chain: T1 chain with V241G, P242D, F244S, G245H, D246V, W247S

[3] = biological target: T3, PBS1^TCS-HA (PBS1 in which the seven amino acids flanking the AvrPphB cleavage site are replaced with a TEV cleavage site, fused to 3xHA)
T3 chain: T1 chain with V241E, P242N, K243L, F244Y, G245F, D246Q, W247G

B1: AvrRpt2 (Example 1 pTA7002 construct; also as delivered by P. syringae DC3000(avrRpt2)) (protein)
chain: MKIAPVAINHSPLSREVPSHAAPTQAKQTNLQSEAGDLDARKSSASSPETRALLATKTVLGRHKIEVPAFGGWFKKKSSKHETGGSSANADSSSVASDSTEKPLFRLTHVPYVSQGNERMGCWYACARMVGHSVEAGPRLGLPELYEGREGPAGLQDFSDVERFIHNEGLTRVDLPDNERFTHEELGALLYKHGPIIFGWKTPNDSWHMSVLTGVDKETSSITFHDPRQGPDLAMPLDYFNQRLAWQVPHAMLYR
- cleavage product by anti-HA immunoprecipitation and immunoblot, transgenic Arabidopsis line #5, 12 hours after inoculation [1]: a cleavage product of PBS1^RCS2 was detected in transgenic line #5 twelve hours after inoculation with DC3000(avrRpt2), but not with DC3000 lacking avrRpt2

B2: TEV protease (NIa protease of Tobacco Etch Virus) fused to 5xMyc (protein)
chain: GESLFKGPRDYNPISSTICHLTNESDGHTTSLYGIGFGPFIITNKHLFRRNNGTLLVQSLHGVFKVKNTTTLQQHLIDGRDMIIIRMPKDFPPFPQKLKFREPQREERICLVTTNFQTKSMSSMVSDTSCTFPSSDGIFWKHWIQTKDGQCGSPLVSTRDGFIVGIHSASNFTNTNNYFTSVPKNFMELLTNQEAQQWVSGWRLNADSVLWGGHKVFMSKPEEPFQPVKEATQLMNELVYSQ
- cleavage by immunoblot [2]: TEV protease did not cleave wild-type PBS1
- cleavage by immunoblot, 6 hours post induction [3]: TEV protease cleaved PBS1^TCS 6 hours post induction

B3: AvrRpt2 fused to 5xMyc (Example 5 construct) (protein)
chain: B1 chain
- cleavage by immunoblot, 6 hours post-induction [1]: AvrRpt2 cleaved PBS1^RCS2 at 6 hours post-induction
- cleavage by immunoblot, 24 hours post-induction [1]: At 24 hours post-induction, AvrRpt2-induced cleavage was increased

B4: C122A (protease-deficient mutant form of AvrRpt2) fused to 5xMyc (protein)
chain: B1 chain with C122A
- cleavage by immunoblot, 24 hours post-induction [1]: even C122A induced small amounts of cleavage
